Measurements taken from PMC2756588.

T1: Hse1, P38753
T1 sequence (P38753 208-285, looked up): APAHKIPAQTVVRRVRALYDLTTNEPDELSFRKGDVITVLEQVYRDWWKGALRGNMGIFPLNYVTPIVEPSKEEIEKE

T2: Bud14, P27637
T2 sequence (P27637 247-328, looked up): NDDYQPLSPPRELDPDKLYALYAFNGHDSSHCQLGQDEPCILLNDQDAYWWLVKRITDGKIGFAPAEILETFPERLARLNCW

T3: Bzz1-1, P38822
T3 sequence (P38822 478-572, looked up): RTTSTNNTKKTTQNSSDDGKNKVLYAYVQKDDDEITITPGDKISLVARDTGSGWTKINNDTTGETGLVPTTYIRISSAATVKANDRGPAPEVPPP

T4: Cdc25, P04821
T4 sequence (P04821 50-136, looked up): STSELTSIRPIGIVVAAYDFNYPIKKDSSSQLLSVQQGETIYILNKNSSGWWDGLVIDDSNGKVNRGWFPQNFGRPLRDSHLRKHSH

T5: Pin3, Q06449
T5 sequence (Q06449 53-122, looked up): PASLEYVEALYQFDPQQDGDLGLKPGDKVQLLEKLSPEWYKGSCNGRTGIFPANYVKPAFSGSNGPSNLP

T6: Boi2, P39969
T6 sequence (P39969 32-116, looked up): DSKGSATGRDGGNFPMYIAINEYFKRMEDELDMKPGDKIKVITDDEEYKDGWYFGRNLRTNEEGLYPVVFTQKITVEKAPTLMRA

T7: Boi1, P38041
T7 sequence (P38041 1-86, looked up): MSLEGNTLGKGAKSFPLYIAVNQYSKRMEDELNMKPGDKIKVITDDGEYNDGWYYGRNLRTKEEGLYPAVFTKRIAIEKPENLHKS

T8: Myo5, Q04439
T8 sequence (Q04439 1072-1160, looked up): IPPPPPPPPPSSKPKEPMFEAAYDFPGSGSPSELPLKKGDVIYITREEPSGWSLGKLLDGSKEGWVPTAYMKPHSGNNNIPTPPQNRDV

T9: Bbc1, P47068
T9 sequence (P47068 1-78, looked up): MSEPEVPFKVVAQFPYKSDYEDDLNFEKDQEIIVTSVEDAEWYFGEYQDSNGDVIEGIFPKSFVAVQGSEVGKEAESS

T10: Lsb1, P53281
T10 sequence (P53281 45-122, looked up): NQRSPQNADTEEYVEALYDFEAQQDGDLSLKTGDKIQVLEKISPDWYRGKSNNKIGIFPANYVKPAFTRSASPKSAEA

T11: Sla1-3, P32790
T11 sequence (P32790 344-424, looked up): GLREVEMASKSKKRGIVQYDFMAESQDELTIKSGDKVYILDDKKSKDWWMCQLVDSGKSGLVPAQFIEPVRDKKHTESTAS

T12: Nbp2, Q12163
T12 sequence (Q12163 103-180, looked up): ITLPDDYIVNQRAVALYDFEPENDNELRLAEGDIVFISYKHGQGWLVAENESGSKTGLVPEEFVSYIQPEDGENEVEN

T13: Hof1, Q05080
T13 sequence (Q05080 590-669, looked up): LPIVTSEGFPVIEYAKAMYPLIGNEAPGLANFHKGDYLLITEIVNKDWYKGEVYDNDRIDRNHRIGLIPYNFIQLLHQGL

T14: Lsb3, P43603
T14 sequence (P43603 385-451, looked up): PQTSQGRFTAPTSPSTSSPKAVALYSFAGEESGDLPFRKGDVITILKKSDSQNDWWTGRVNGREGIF

T15: Pex13, P80667
T15 sequence (P80667 295-386, looked up): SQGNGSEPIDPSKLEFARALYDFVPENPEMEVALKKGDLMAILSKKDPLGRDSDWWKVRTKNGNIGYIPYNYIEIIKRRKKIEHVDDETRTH

T16: Sla1-2, P32790
T16 sequence (P32790 60-140, looked up): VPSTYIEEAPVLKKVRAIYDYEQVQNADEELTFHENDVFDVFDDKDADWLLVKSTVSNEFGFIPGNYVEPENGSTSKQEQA

T17: Fus1, P11710
T17 sequence (P11710 432-512, looked up): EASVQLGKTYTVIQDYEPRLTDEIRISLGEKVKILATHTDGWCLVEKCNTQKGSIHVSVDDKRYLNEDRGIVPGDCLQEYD

T18: Lsb4, P32793
T18 sequence (P32793 402-468, looked up): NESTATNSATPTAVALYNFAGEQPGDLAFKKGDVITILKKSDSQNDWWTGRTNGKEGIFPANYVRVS

T19: Bzz1-2, P38822
T19 sequence (P38822 568-633, looked up): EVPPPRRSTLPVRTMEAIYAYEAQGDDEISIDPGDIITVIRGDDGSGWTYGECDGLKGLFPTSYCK

T20: Cyk3, Q07533
T20 sequence (Q07533 1-83, looked up): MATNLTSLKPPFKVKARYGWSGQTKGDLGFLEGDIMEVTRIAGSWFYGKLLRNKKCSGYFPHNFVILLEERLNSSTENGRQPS

T21: Abp1, P15891
T21 sequence (P15891 535-592, looked up): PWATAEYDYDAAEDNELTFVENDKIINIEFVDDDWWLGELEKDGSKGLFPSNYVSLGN


Legend:
Assay in all cases: SPOT array
Bem1-1, P29366 = conditions: median of control spots 4282
Hse1, P38753 = biological target: T1, Hse1, P38753; conditions: median of control spots 1727
Bud14, P27637 = biological target: T2, Bud14, P27637; conditions: median of control spots 956
Bzz1-1, P38822 = biological target: T3, Bzz1-1, P38822; conditions: median of control spots 4446
Cdc25, P04821 = biological target: T4, Cdc25, P04821; conditions: median of control spots 969
Pin3, Q06449 = biological target: T5, Pin3, Q06449; conditions: median of control spots 2171
Boi2, P39969 = biological target: T6, Boi2, P39969; conditions: median of control spots 1161
Boi1, P38041 = biological target: T7, Boi1, P38041; conditions: median of control spots 1162
Sho1, P40073 = conditions: median of control spots 1148
Myo5, Q04439 = biological target: T8, Myo5, Q04439; conditions: median of control spots 471
Bbc1, P47068 = biological target: T9, Bbc1, P47068; conditions: median of control spots 796
Lsb1, P53281 = biological target: T10, Lsb1, P53281; conditions: median of control spots 388
Sla1-3, P32790 = biological target: T11, Sla1-3, P32790; conditions: median of control spots 5475
Nbp2, Q12163 = biological target: T12, Nbp2, Q12163; conditions: median of control spots 357
Hof1, Q05080 = biological target: T13, Hof1, Q05080; conditions: median of control spots 4086
Lsb3, P43603 = biological target: T14, Lsb3, P43603; conditions: median of control spots 406
Pex13, P80667 = biological target: T15, Pex13, P80667; conditions: median of control spots 1341
Myo3, P36006 = conditions: median of control spots 468
Sla1-2, P32790 = biological target: T16, Sla1-2, P32790; conditions: median of control spots 712
Fus1, P11710 = biological target: T17, Fus1, P11710; conditions: median of control spots 1200
Lsb4, P32793 = biological target: T18, Lsb4, P32793; conditions: median of control spots 397
Bem1-2, P29366 = conditions: median of control spots 4347
GST = conditions: median of control spots 978
Bzz1-2, P38822 = biological target: T19, Bzz1-2, P38822; conditions: median of control spots 4538
Cyk3, Q07533 = biological target: T20, Cyk3, Q07533; conditions: median of control spots 1451
Rvs167, P39743 = conditions: median of control spots 2707
Abp1, P15891 = biological target: T21, Abp1, P15891; conditions: median of control spots 935

Sequence of Sho1, P40073 (P40073 287-367): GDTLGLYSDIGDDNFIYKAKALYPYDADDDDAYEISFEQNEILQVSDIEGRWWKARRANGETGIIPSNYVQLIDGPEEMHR
Sequence of Rvs167, P39743 (P39743 419-482): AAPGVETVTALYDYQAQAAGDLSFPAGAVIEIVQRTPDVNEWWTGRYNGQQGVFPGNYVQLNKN
Sequence of Bem1-2, P29366 (P29366 139-227): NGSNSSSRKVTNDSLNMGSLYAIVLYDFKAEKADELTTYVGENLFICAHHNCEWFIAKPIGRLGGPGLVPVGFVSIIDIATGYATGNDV
Sequence of Bem1-1, P29366 (P29366 55-141): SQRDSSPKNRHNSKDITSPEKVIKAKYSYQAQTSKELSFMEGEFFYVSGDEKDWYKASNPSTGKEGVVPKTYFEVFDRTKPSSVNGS

SPOT intensity (Bem1-1, P29366) | SPOT intensity (Hse1, P38753) | SPOT intensity (Bud14, P27637) | SPOT intensity (Bzz1-1, P38822) | SPOT intensity (Cdc25, P04821) | SPOT intensity (Pin3, Q06449) | SPOT intensity (Boi2, P39969) | SPOT intensity (Boi1, P38041) | SPOT intensity (Sho1, P40073) | SPOT intensity (Myo5, Q04439) | SPOT intensity (Bbc1, P47068) | SPOT intensity (Lsb1, P53281) | SPOT intensity (Sla1-3, P32790) | SPOT intensity (Nbp2, Q12163) | SPOT intensity (Hof1, Q05080) | SPOT intensity (Lsb3, P43603) | SPOT intensity (Pex13, P80667) | SPOT intensity (Myo3, P36006) | SPOT intensity (Sla1-2, P32790) | SPOT intensity (Fus1, P11710) | Binder | also measured
0 | 2 | 0 | 0 | 0 | 19 | 2 | 0 | 0 | 1 | 0 | 0 | 0 | 0 | 3 | 0 | 59 | 0 | 1 | 0 | LYEAMPPTLPHRDWK | SPOT intensity (Lsb4, P32793): 1; SPOT intensity (Bem1-2, P29366): 1; SPOT intensity (GST): 0; SPOT intensity (Bzz1-2, P38822): 2; SPOT intensity (Cyk3, Q07533): 0; SPOT intensity (Rvs167, P39743): 151; SPOT intensity (Abp1, P15891): 0
0 | 0 | 2 | 5 | 4 | 0 | 0 | 0 | 0 | 0 | 0 | 0 | 0 | 0 | 1 | 0 | 0 | 0 | 0 | 0 | QPWTDQFEKLEKEVS | SPOT intensity (Lsb4, P32793): 0; SPOT intensity (Bem1-2, P29366): 0; SPOT intensity (GST): 0; SPOT intensity (Bzz1-2, P38822): 1; SPOT intensity (Cyk3, Q07533): 0; SPOT intensity (Rvs167, P39743): 0; SPOT intensity (Abp1, P15891): 0

Continued, binder first:

Binder | SPOT intensity (Bem1-1, P29366) | SPOT intensity (Hse1, P38753) | SPOT intensity (Bud14, P27637) | SPOT intensity (Bzz1-1, P38822) | SPOT intensity (Cdc25, P04821) | SPOT intensity (Pin3, Q06449) | SPOT intensity (Boi2, P39969) | SPOT intensity (Boi1, P38041) | SPOT intensity (Sho1, P40073) | SPOT intensity (Myo5, Q04439) | SPOT intensity (Bbc1, P47068) | SPOT intensity (Lsb1, P53281) | SPOT intensity (Sla1-3, P32790) | SPOT intensity (Nbp2, Q12163) | SPOT intensity (Hof1, Q05080) | SPOT intensity (Lsb3, P43603) | SPOT intensity (Pex13, P80667) | SPOT intensity (Myo3, P36006) | SPOT intensity (Sla1-2, P32790) | SPOT intensity (Fus1, P11710) | also measured
TKHKAPPPPPPTAET | 3 | 0 | 0 | 762 | 0 | 0 | 1 | 0 | 0 | 1 | 0 | 0 | 0 | 0 | 1 | 1 | 0 | 0 | 1 | 0 | SPOT intensity (Lsb4, P32793): 0; SPOT intensity (Bem1-2, P29366): 0; SPOT intensity (GST): 0; SPOT intensity (Bzz1-2, P38822): 190; SPOT intensity (Cyk3, Q07533): 0; SPOT intensity (Rvs167, P39743): 0; SPOT intensity (Abp1, P15891): 0
RRGPAPPPPPRASRP | 3 | 10 | 8 | 45 | 0 | 17 | 0 | 0 | 0 | 0 | 0 | 0 | 14 | 0 | 2 | 0 | 17 | 0 | 0 | 0 | SPOT intensity (Lsb4, P32793): 1; SPOT intensity (Bem1-2, P29366): 11; SPOT intensity (GST): 1; SPOT intensity (Bzz1-2, P38822): 27; SPOT intensity (Cyk3, Q07533): 0; SPOT intensity (Rvs167, P39743): 3340; SPOT intensity (Abp1, P15891): 0
PAPPPPPRASRPTPN | 0 | 0 | 6 | 7 | 0 | 6 | 0 | 1 | 0 | 1 | 0 | 0 | 0 | 0 | 0 | 0 | 56 | 0 | 2 | 1 | SPOT intensity (Lsb4, P32793): 0; SPOT intensity (Bem1-2, P29366): 0; SPOT intensity (GST): 1; SPOT intensity (Bzz1-2, P38822): 0; SPOT intensity (Cyk3, Q07533): 1; SPOT intensity (Rvs167, P39743): 514; SPOT intensity (Abp1, P15891): 0
